Article PMC6618058

Experiments:
[1] = target: HLA-A*02:01 with the MART-1(27-35) nonapeptide …, not tagged
[2] = target: Biotinylated HLA-A*02:01 with the MART-1(26-35) decapeptide …

MIP‐1β secretion (ELISA) by CD8+ T cells transduced with the MEL5 TCR in response to titrated … presented by T2 cells; sensitivity against that of DMF4 TCR-transduced T cells [1]: 100 fold
dH [2]: -14 kcal/mol
Substance: MEL5 TCR
